This is an account of results in patent EP2204447B1.

In this assay the target is streptavidin (UniProt P22629). The experiment in a line: capture of cells on streptavidin coated magnetic beads, before selection.
Sequence of UniProt P22629 (P22629 37-163 limits assumed): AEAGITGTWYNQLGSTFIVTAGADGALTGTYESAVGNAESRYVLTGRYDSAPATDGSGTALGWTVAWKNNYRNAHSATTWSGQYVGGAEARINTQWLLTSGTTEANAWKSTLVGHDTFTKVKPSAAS

“Ramos IgM (immunoglobulin of the unselected / wild-type Ramos Burkitt lymphoma cell line) (antibody)” yielded a proportion of cells which bind to the beads of 0.02%.
